This is an account of results in US20250313634A1 (WUXI BIOLOGICS SHANGHAI, published 2025).

The target in assay [1] is T1, PD-L2 expressed on transfected CHO cells (Homo sapiens (Human), UniProt Q9BQ51 20-273).
T1 construct: also called PD-L2 of PD-1 ligand family
T1 sequence: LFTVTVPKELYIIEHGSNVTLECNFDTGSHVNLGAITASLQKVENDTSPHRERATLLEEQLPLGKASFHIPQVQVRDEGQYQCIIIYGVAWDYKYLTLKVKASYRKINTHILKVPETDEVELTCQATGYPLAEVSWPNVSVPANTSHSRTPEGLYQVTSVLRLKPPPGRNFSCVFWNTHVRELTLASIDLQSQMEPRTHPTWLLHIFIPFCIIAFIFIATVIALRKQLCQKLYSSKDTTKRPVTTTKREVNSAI
Nature of the assay: FACS on PD-L2 transfected CHO-K1 cells, single bar, antibody concentration not shown. The method, then:
3.8 Cross-family binding assay by FACS: to examine the cross-family binding activity of the fully human antibodies, cells lines that express PD-L2 were stained with the fully human antibodies, followed by 2nd antibody staining with FITC conjugated goat anti-human IgG Fc. PD-L1 expressing cells were used as positive control. Corresponding parental cell lines were used as negative controls. The stained cells were analyzed by using a BD Biosciences FACSCanto II and FlowJo Version software.
CHO cells transfected with PD-L1 or PD-L2 were stained with fully human PD-L1 antibodies and analysis by FACS.

In assay [2] the target is T2, murine PD-L1 (mouse, UniProt Q9EP73 19-238, limits assumed).
T2 construct: also called mouse PD-L1 (coated on ELISA plates)
T2 sequence (Q9EP73 19-238 limits assumed): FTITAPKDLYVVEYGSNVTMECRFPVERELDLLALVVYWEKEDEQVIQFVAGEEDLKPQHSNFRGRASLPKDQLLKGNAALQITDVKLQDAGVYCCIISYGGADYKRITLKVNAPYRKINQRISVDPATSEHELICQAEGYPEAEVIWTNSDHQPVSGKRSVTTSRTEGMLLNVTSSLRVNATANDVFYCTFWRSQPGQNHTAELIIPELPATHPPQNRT
Kind of assay: ELISA, murine PD-L1 coated on the plate, goat anti-human IgG Fc-HRP; antibody concentration not shown. The method, then:
3.7 Cross-species binding assay: the cross-reactivity of the Ab to cynomolgus and murine PD-L1 was measured by ELISA. Human, cyno and mouse PD-L1 were coated on ELISA plates, respectively. After blocking, fully human antibodies were added into the plate and incubated at room temperature for at least 2 hours. The binding of the antibodies to the coated antigens was detected by using goat anti-human IgG Fc-HRP. The color reaction was developed using TMB substrate and stopped by 2M HCl. The ELISA plates were analyzed at 450 nm using a Molecular Device M5e microplate reader.

Assay [3] has as its target T3, full-length human PD-L1 expressed on CHO cells (human, UniProt Q9NZQ7 19-290).
T3 construct: whole, on cells; also called CHO-K1 cells expressing human PD-L1; PD-L1 transfected CHO cells
Kind of assay: FACS competition: blocking of mouse Fc-tagged human PD-1 binding to CHO cells expressing human PD-L1. The method, then: (§1) 3.1 Competition assay by FACS: to examine whether the fully human antibodies can block the binding of PD-L1 to PD-1, the CHO-K1 cells expressing human PD-L1 were incubated with various concentrations of the fully human antibodies at 4° C. for 1 hour. The unbound antibodies were washed away, and then the mouse Fc-tagged human PD-1 was added to the cells. The binding of human PD-1 to PD-L1 expressing cell was detected by using FITC-conjugated goat anti-mouse IgG, followed by the analysis using a BD Biosciences FACSCanto II and FlowJo Version software.
(§2) Then the mouse Fc-tagged human PD-1 was added to the cells. The binding of human PD-1 to PD-L1 expressing cell was detected by using FITC-conjugated goat anti-mouse IgG, followed by the FACS analysis.

For assay [4], the target named is T3, full-length human PD-L1 expressed on …. Kind of assay: FACS competition on CHO cells expressing human PD-L1; competitor mouse Fc-tagged human PD-1. The method, then: as §1, §2
For assay [5] the target is unchanged. Kind of assay: FACS on CHO cells transfected with full-length human PD-L1.
Assay [6] deals with T4, recombinant human PD-L1 (human, UniProt Q9NZQ7 19-238, limits assumed).
T4 construct: Used for the SPR analyte (3.2) and for the plate-coated human PD-L1 of the cross-species ELISA (3.7); also called human PD-L1 (SPR analyte); Human PD-L1 coated on ELISA plates
T4 sequence (Q9NZQ7 19-238 limits assumed): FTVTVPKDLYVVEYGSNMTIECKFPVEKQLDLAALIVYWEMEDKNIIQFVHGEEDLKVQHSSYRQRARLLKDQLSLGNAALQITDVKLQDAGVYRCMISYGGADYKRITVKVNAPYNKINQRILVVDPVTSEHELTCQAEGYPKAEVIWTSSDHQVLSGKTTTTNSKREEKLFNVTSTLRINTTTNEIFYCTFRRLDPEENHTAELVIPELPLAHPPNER
Nature of the assay: surface plasmon resonance per legend paragraph 39 and paragraph 188; column Best fit-KD, mol/L from the legend. The text has this:
3.2 Affinity test by surface plasmon resonance (SPR): Antibodies were characterized for affinity and binding kinetics to PD-L1 by SPR assay using ProteOn XPR36 (Bio-Rad). Protein A protein (Sigma) was immobilized to a GLM sensor chip (Bio-Rad) through amine coupling. Purified antibodies were flowed over the sensor chip and captured by the Protein A. The chip was rotated […] and washed with running buffer (1×PBS/0.01% Tween20, Bio-Rad) until the baseline is stable. Five concentrations of human PD-L1 and running buffer were flowed against the antibody flow cell at a flow rate 100 μL/min for an association phase of 240s, followed by 600s dissociation. The chip was regenerated with pH 1.7 H₃PO₄ after each run. The association and dissociation curve was fit to a 1:1 Langmiur binding model using ProteOn software.

T3 sequence (Q9NZQ7 19-290): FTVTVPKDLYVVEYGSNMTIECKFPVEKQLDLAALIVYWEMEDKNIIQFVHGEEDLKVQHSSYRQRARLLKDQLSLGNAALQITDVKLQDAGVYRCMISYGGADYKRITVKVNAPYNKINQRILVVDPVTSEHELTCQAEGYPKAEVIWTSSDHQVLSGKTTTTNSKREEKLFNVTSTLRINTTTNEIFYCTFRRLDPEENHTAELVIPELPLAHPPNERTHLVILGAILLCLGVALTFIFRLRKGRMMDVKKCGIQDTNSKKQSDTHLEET

B1: 1.46.11 (antibody, V domains shown)
VH: EVQLLESGGGLVQPGGSLRLSCAASGFTFSSYAMSWVRQAPGKGLEWVSGFSGSGFITYYADSVKGRFTISRDNSKNTLYLQMNSLRAEDTAVYYCAMPPRGYNYGPFDYWGQGTLVTVSS
VL: SYVLTQPPSVSVAPGQTARITCGGNNIGSKSVHWYQQKPGQAPVLVVYDDSDRPSGIPERFSGSNSGNTATLTISRVEAGDEADYYCQVWDSSSDHVVFGGGTKLTVL
notes: Fully human monoclonal antibody with a human constant region of IgG4 isotype
On to B1, for which the binding result in assay [1] and in assay [2] was “no binding” in each case.

B2: 1.20.15 (antibody, V domains shown)
VH: QLQLQESGPGLVKPSETLSLTCTVSGGSISSISNYWGWIRQPPGKGLEWIGSIYYSGSTNYNPPLKSRVTISVDTTKNQFSLKLSSVTAADTAVYYCARLTYYFDYWGQGMLVTVSS
VL: SYDLTQPPSVSVSPGQTASITCSGDKLGDKYACWYQQKPGQSPLLVIQQDSKRPSGIPARFSGSNSGNTATLTISGTQAMDEADYFCQTWDSSTVVFGGGTKLTVL
notes: Fully human monoclonal antibody with a human constant region of IgG4 isotype; also called fully human PD-L1 antibody 1.20.15; 1.20.15-VH(30712)
With B2, the binding result in assay [1] and in assay [2] was “no binding” in each case. Moreover, in assay [3], the “IC50 (read off the curve)” value was approximately 2 nM. Further, in assay [4], the IC50 is approximately 10 nM. Besides, the “EC50 (read off the curve)” value in assay [5] is approximately 1 nM. Further, in assay [6], the Kd is 0.226 nM.

B3: 1.4.1 (antibody, V domains shown)
VH: QLQLQESGPGLVKPSESLSLTCTVSGGSISIRTYYWGWIRQPPGTGLEWMGYIYYSGSTRYNPSLKSRVTISVDTSKNQFSLKLSSVTAADTAVYYCARLSYFFDYWGQGTLVTVSS
VL: SYELTQPPSVSVSPGQTASITCSGDKLGDKYACWYQQKPGQSPVMVIYQDTKRPSGIPERFSGSNSGNTATLTISGTLAMDEADYYCQAWDSGTVIFGGGTKLTVL
notes: Fully human monoclonal antibody with a human constant region of IgG4 isotype; also called fully human PD-L1 antibody 1.4.1; 1.4.1-VH(30511)
B3: in assay [1], the binding result is reported as “no binding”. Further, the Kd in assay [6] turned out to be 0.478 nM.
